Measured values taken from article PMC5347340 (2017).

What was measured:
[1] = target: BG505 gp140.681.R1-1NOG trimer (HIV-1 BG505, UniProt Q2N0S6); experiment: BLI
[2] = target: BG505 gp140.681.R1-1V6H trimer (HIV-1 BG505, UniProt Q2N0S6); experiment: BLI

B1: PGDM1400 (protein)
chain 1: DFVLTQSPHSLSVTPGESASISCKSSHSLIHGDRNNYLAWYVQKPGRSPQLLIYLASSRASGVPDRFSGSGSDKDFTLKISRVETEDVGTYYCMQGRESPWTFGQGTKVDIKRTVAAPSVFIFPPSDEQLKSGTASVVCLLNNFYPREAKVQWKVDNALQSGNSQESVTEQDSKDSTYSLSSTLTLSKADYEKHKVYACEVTHQGLSSPVTKSFNRGEC
chain 2: QAQLVQSGPEVRKPGTSVKVSCKAPGNTLKTYDLHWVRSVPGQGLQWMGWISHEGDKKVIVERFKAKVTIDWDRSTNTAYLQLSGLTSGDTAVYYCAKGSKHRLRDYALYDDDGALNWAVDVDYLSNLEFWGQGTAVTVSSASTKGPSVFPLAPSSKSTSGGTAALGCLVKDYFPEPVTVSWNSGALTSGVHTFPAVLQSSGLYSLSSVVTVPSSSLGTQTYICNVNHKPSNTKVDKKVEPKSCD
In the case of B1, the Kd [1] is reported as 4.7 nM and the Kd [2] is reported as 5.1 nM.
